According to patent publication US20160090425:

Molecular target: six other anti-C1s binding antibodies

B1: human C1s enzyme purified from human plasma (Complement Technology Inc., Cat # A103) (protein)
chain: EPTMYGEILSPNYPQAYPSEVEKSWDIEVPEGYGIHLYFTHLDIELSENCAYDSVQIISGDTEEGRLCGQRSSNNPHSPIVEEFQVPYNKLQVIFKSDFSNEERFTGFAAYYVATDINECTDFVDVPCSHFCNNFIGGYFCSCPPEYFLHDDMKNCGVNCSGDVFTALIGEIASPNYPKPYPENSRCEYQIRLEKGFQVVVTLRREDFDVEAADSAGNCLDSLVFVAGDRQFGPYCGHGFPGPLNIETKSNALDIIFQTDLTGQKKGWKLRYHGDPMPCPKEDTPNSVWEPAKAKYVFRDVVQITCLDGFEVVEGRVGATSFYSTCQSNGKWSNSKLKCQPVDCGIPESIENGKVEDPESTLFGSVIRYTCEEPYYYMENGGGGEYHCAGNGSWVNEVLGPELPKCVPVCGVPREPFEEKQRIIGGSDADIKNFPWQVFFDNPWAGGALINEYWVLTAAHVVEGNREPTMYVGSTSVQTSRLAKSKMLTPEHVFIHPGWKLLEVPEGRTNFDNDIALVRLKDPVKMGPTVSPICLPGTSSDYNLMDGDLGLISGWGRTEKRDRAVRLKAARLPVAPLRKCKEVKVEKPTADAEAYVFTPNMICAGGEKGMDSCKGDSGGAFAVQDPNDKTKFYAAGLVSWGPQCGTYGLYTRVKNYVDWIMKTMQENSTPRED
With B1 the “C1s-mediated C4 α-chain cleavage (SDS gel), antibody at approximately 10-fold molar excess” value was “six other anti-C1s binding antibodies, including the C1s binding antibody 3F8 (see FIG. 1, Example 2), did not show inhibitory activity”.
